Numbering of substitutions follows the chain as printed.
T1: Human IL-11 (human, UniProt P20809 22-199)
T1 construct: Recombinant human IL-11 (GenScript Cat. No. Z03108-1) or IL-11 secreted by human cells; the mature form is said to have 178 residues; also called recombinant human IL-11; endogenously produced IL-11
T1 sequence: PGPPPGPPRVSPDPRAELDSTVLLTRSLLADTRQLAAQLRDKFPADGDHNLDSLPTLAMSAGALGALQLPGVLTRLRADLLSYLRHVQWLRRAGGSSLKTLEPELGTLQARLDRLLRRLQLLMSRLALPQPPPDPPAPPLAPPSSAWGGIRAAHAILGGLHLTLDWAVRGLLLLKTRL

T2: Mouse IL-11 (mouse, UniProt P47873 22-199, limits assumed)
T2 construct: also called murine IL-11; recombinant murine IL-11
T2 sequence (looked up): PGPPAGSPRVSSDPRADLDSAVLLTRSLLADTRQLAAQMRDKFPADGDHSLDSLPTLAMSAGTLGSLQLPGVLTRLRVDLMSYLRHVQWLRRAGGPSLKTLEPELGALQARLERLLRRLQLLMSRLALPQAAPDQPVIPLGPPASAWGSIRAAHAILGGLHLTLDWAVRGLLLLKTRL

B1: YU100-E12 (antibody)
chain: QVQLVESGGGVVQPGRSLRLSCAASGFTFSSYGMHWVRQAPGKGLEWVAVISYDGSNKYYADSVKGRFTISRDNSKNTLYLQMNSLRAEDTAVYYCAKIGATDPLDYWGQGTLVTVSSGSASAPKLEEGEFSEARVQSALTQPASVSGSPGQSITISCTGTSSDVGGYNYVSWYQQHPGTAPKLMIYDVSNRPSGVSNRFSGSKSGNTASLTISGLQAEDEADYYCSSYTSSTTWVFGGGTKLTVL
B2: YU100-G07 (antibody)
chain: B1 chain with G167A, N169D, T180K, S190T, S227A, S231R, T233S, T234V
B3: YU100-H11 (antibody)
chain: B1 chain with E6Q, T180K, S227C, T230A, S231G, T233Y
B4: YU100-F01 (antibody)
chain: QVQLVQSGGGVVQPGRSLRLSCAASGFTFSSYGMHWVRQAPGKGLEWVAVISYDGSNKYYADSVKGRFTISRDNSKNTLYLQMNSLRAEDTAVYYCAKIGATDPLDYWGQGTLVTVSSGSASAPKLEEGEFSEARVQSALTQPASVSGSPGQSITISCTGTGSDVGAYDYVSWYQQHPGKAPKLMIYDVNNRPSGVSNRFSGSKSGNTASLTISGLQAEDEAEYYCSSFATSISWVFGGGTRLTVL
B5: YU100-H05 (antibody)
chain: QVQLVESGGGVVQPGRSLRLSCAASGFTFSSYGMHWVRQAPGKGLEWVAVISYDGSNKYYADSVKGRFTISRDNSKNTLYLQMNSLRAEDTAVYYCAKIGATDPLDYWGQGTLVTVSSGSASAPKLEEGEFSEARVQAVLTQPRSVSGSPGQSITISCTGTGSNVGGYNYVSWYQQHPGQAPKLMIYDVSKRPSGVPDRFSGSKSGNTASLTISGLQAEDEADYYCCSYAGTYTWVFGGGTKLTVL
B6: YU100-F02 (antibody)
chain: EVQLVESGGGVVQPGRSLRLSCAASGFTFSSYGMHWVRQAPGKGLEWVAVISYDGSNKYYADSVKGRFTISRDNSKNTLYLQMNSLRAEDTAVYYCAKIGATDPLDYWGQGTLVTVSSGSASAPKLEEGEFSEARVQSALTQPRSVSGSPGQSVTISCTGTSSDVGGYNYVSWYQQHPGKAPKLMIYDVTKRPSGVPDRFSGSKSGNTASLTISGLQADDEADYYCCSYAGSYTWIFGGGTKLTVL
B7: YU100-G09 (antibody)
chain: B6 chain with S162I, D219E, D223G, C227S, I236V
B8: YU100-G01 (antibody)
chain: B6 chain with E1Q, E6Q, G148A, G167A, I186L, T190N, G215R, D219E, I236V
B9: YU100-H06 (antibody)
chain: B6 chain with E1Q, V136I, D219E, C227S, I236V
B10: YU100-H02 (antibody)
chain: QVQLQQSGGGVVQPGRSLRLSCAASGFTFSSYGMHWVRQAPGKGLEWVAVISYDGSNKYYADSVKGRFTISRDNSKNTLYLQMNSLRAEDTAVYYCARIMGYDYGDYDVVDYWGQGTLVTVSSGSASAPKLEEGEFSEARVQSALTQPRSVSRSPGQSVTISCTGTSSDVGTYNYVSWYQQHPGKAPKLMIYDVSKRPSGVPDRFSGSKSGNTASLTISGLQAEDEADYYCCSYAGFYTWVFGGGTKLTVL
B11: YU100-H09 (antibody)
chain: B10 chain with Q5V, G33A, R149A, R153G, V159I, T172G, K196N, P202S, D203N, F237S
B12: YU100-H04 (antibody)
chain: B10 chain with Q5V, Q6E, G33A, R149A, R153G, V159I, V170I, T172V, F237S

The binders below were run against T1, Human IL-11 (assay: ELISA on coated recombinant human IL-11 (100 ng/well), scFv-Fc).
Protocol: The light chain shuffled anti-IL-11 antibodies were analysed to determine the EC50 for binding to human IL-11 by ELISA according to standard methods. Briefly, wells of microtiter plates were coated with recombinant human IL-11 (100 ng/well), scFv-Fc comprising the VH and VL domains of the clones were added in a dilution series and antibody binding was detected using a polyclonal antibody detection system.

Row | EC50 | Binder
1 | 0.016 µg/mL | B1
2 | 0.018 µg/mL | B2
3 | 0.015 µg/mL | B3
4 | 0.018 µg/mL | B4
5 | 0.022 µg/mL | B5
6 | 0.018 µg/mL | B6
7 | 0.014 µg/mL | B7
8 | 0.019 µg/mL | B8
9 | 0.013 µg/mL | B9
10 | 0.032 µg/mL | B10
11 | 0.028 µg/mL | B11
12 | 0.027 µg/mL | B12

What follows are binders tested against T1, Human IL-11 (assay: ELISA).
Protocol: (§1) The soluble scFv were produced by recombinant expression in E. coli, and analysed for their ability to bind to human IL-11 and murine IL-11 by ELISA. Briefly, the respective antigen was coated to wells of an ELISA plate, the cell culture supernatant containing the respective scFv was added at a 1:2 dilution, and binding was detected.

Row | hIL11 - average signal | Binder
13 | 0.426 | B1
14 | 0.203 | B2
15 | 0.724 | B3
16 | 0.464 | B4
17 | 0.163 | B5
18 | 0.361 | B6
19 | 0.802 | B7
20 | 0.205 | B8
21 | 0.181 | B9
22 | 0.309 | B10
23 | 0.4 | B11
24 | 0.508 | B12

The binders below were run against T2, Mouse IL-11 (assay: ELISA).
Protocol: as §1

Row | mIL11 - average signal | Binder
25 | 0.5 | B1
26 | 0.206 | B2
27 | 0.629 | B3
28 | 0.528 | B4
29 | 0.461 | B5
30 | 0.303 | B6
31 | 0.985 | B7
32 | 0.31 | B8
33 | 0.328 | B9
34 | 0.188 | B10
35 | 0.668 | B11
36 | 0.393 | B12

Each binder was assayed against T1, Human IL-11 (assay: cell-based or functional assay).

Row | MMP2 production, Experiment 1 (human atrial fibroblasts + TGFB1) | MMP2 production, Experiment 2 (human atrial fibroblasts + TGFB1) | Binder
37 | 56 ng/mL | 47.9 ng/mL | B1
38 | 59 ng/mL | 49.7 ng/mL | B2
39 | 53.7 ng/mL | 45.5 ng/mL | B3
40 | 52.8 ng/mL | 39.9 ng/mL | B4
41 | 57.1 ng/mL | 47.8 ng/mL | B5
42 | 51.2 ng/mL | 43.5 ng/mL | B6
43 | 59.9 ng/mL | 47.5 ng/mL | B7
44 | 56.6 ng/mL | 49.7 ng/mL | B8
45 | 52.3 ng/mL | 43.9 ng/mL | B9
46 | 57.5 ng/mL | 51.3 ng/mL | B10
47 | 52.9 ng/mL | 39.6 ng/mL | B11
48 | 58.5 ng/mL | 48.7 ng/mL | B12

From patent publication US20210230266A1 (SINGAPORE HEALTH SERVICES PTE, published 2021)
